From the supplement of paper PMC10567573

B1: TRAF3IP2 (parent)
chain: FMEKRNQWLVSQLSAASPDTGHDS

Variants of: B1
Assay: protein stability index of a GFP-peptide fusion (GPS, HEK-293T) (PSI 1-6); higher = more stable
Settings: c terminus: a fixed tail appended
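Also: lentivirally expressed fusions sorted by FACS into six bins by GFP to DsRed ratio, PSI derived from sequencing read proportions per bin multiplied by bin number.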

Protein stability index of substitutions, site by site:
V10: Y 2.5, A 3.61, T 3.21, D 4.18, P 2.46, E 4.34, R 3.28, G 3.14, K 3.41, I 2.12, F 1.29, L 2.29, H 3.38, C 1.99, Q 2.93, S 3.5, N 3.46, M 2.74
R5: P 1.36, Y 1.89, C 2.25, V 1.97, W 3.1, G 1.71, D 2.99, T 2.16, N 1.98, S 2.28, F 1.83, M 2.94, A 1.97, H 2.62, E 3.5, K 2.38, L 1.79, Q 2.67, I 1.68
T20: E 1.75, A 2.32, C 2.65, H 2.38, F 1.97, D 2.94
S17: L 2.54, Q 2.63, N 2.35, E 2.88, D 2.94, V 1.88, I 2.19, M 2.1, T 3.03, F 1.88, G 2.47, P 2.66, R 2.46, C 2.98, Y 1.71, H 2.73, K 2.41, W 1.57
L13: F 2.48, I 2.17, W 2.45, E 3.2, Q 2.5, S 3.17, T 2.67, R 3.01, G 2.47, K 2.84, P 3.13, V 2.61, A 3.73, C 1.91, D 3.45, Y 2.35, M 2.48
M2: P 1.42, Q 3.27, D 3.06, I 1.25, L 2.46, H 1.58, F 3.6, C 2.94, N 3.29, R 3.56, Y 2.97, S 2.2, E 4.75, T 2.55, W 3.41, K 4.28
P18: H 2.08, M 2.22, C 2.22, F 1.9, T 2.94, S 1.49, Y 2.7, N 2.5, K 2.42, V 2.54, D 2.88, L 1.93, G 2.38, E 2.62, R 2.77, A 2.35, Q 2.09, W 1.67, I 2.69
Q12: F 1.94, H 3.89, S 1.77, N 2.81, K 1.77, W 1.45, T 1.7, D 3.21, I 1.89, E 3.33, C 1.85, A 2.04, V 1.53, R 2.33, Y 1.98, M 1.68, L 1.65, P 2.71
A16: C 1.96, Y 1.87, R 1.54, M 2.06, S 2.39, P 2.14, F 2.9, Q 2.6, N 2.9, I 2.26, L 1.38, K 2.09, V 2.26, E 2.62, G 3.03, H 2.47, D 2.29, T 1.96
F1: Y 2.84, V 4.55, W 3.17, S 4.37, R 4.48, Q 4.88, T 4.2
D19: H 2.2, A 3.69, I 2.52, E 1.91, K 2.28, G 1.7, S 2.43, Y 1.41, F 1.8, T 3.02, C 2.45, R 2.9, V 1.92, W 1.52, N 2.4, P 2.33, L 1.92, M 2.57
S14: Y 1.63, V 1.65, M 2.34, H 2.48, R 2.39, Q 2.57, D 3.29, E 2.74, N 2.58, W 1.89, I 2.08, A 2.34, G 2.3, L 1.66, F 1.93, K 2.41, T 2.77, C 2.15, P 2.53
S11: Q 2.89, L 1.46, H 2.63, T 2.19, V 2.4, Y 2.64, P 2.9, D 3.79, A 1.94, M 1.71, R 3.3, N 3.18, K 2.7, C 2.22, G 3.32, E 3.27, I 2.06, W 3.25
E3: A 3, R 1.05, Q 2.27, W 1.81, F 2.94, C 1.58, L 2.75, N 1.97, D 2.24, K 2.91, P 1.93, M 2.28, T 3.83, Y 3.02, S 1.77, H 1.71, I 2.32, V 1.95
Q7: K 3.36, P 1.58, H 2.26, E 2.72, N 2.65, M 1.8, R 2.98, W 2.86, T 1.79, C 1.87, I 2.35, A 1.02, Y 2.88, V 1.81, S 1.64, D 3.31
K4: I 2.6, F 2.35, S 2.24, H 2.16, E 3.69, W 1.3, Y 2.17, D 3, T 2.52, Q 2.57, A 1.71, M 2.51, R 2.54, P 2.36, L 2.26, G 1.89, N 2.38
L9: N 3.44, D 4.31, P 3.83, C 2.41, V 1.71, H 3.82, I 2.9, R 2.08, T 2.44, M 2.36, E 4.27, S 3.15, Y 2.9, A 2.19, K 2.7, Q 3.03, F 2.73, G 3.34
N6: S 2.2, M 2.06, V 2.02, G 3.08, W 1.29, K 2.42, I 1.42, C 1.77, H 2.05, R 2.44, Y 1.56, D 2.73, T 1.83, Q 1.91, L 1.51, A 2.24, P 3.03
W8: P 4.58, N 5.08, C 4.71, K 4.57, F 3.95, V 4.79, Y 4.21, A 4.75, E 4.74, D 5.06, Q 4.63, H 4.43, M 4.72, R 4.68, S 4.93, T 5.2, L 4.45, G 5.09, I 4.25
A15: Q 2.34, T 2.7, M 1.7, V 1.83, K 3.53, F 1.83, E 2.73, H 2.33, P 2.75, S 1.79, G 2.71, L 2.3, C 2.38, D 2.47, W 2.29, N 2.21, R 3.45, I 1.77
